From patent US20060257938A1, “Method of screening for drugs that block ligand binding to a lipid binding protein” (priority 2005, published 2006)
Substitutions are numbered along the chain they refer to. “And” between values parts separate entries of the source, which are not always exact repeats. Identical values can stand only once.

B1: 68G, 72A (protein, listed as Rattus norvegicus)
chain: AFDGTWKVDRNENYEKFMEKMGINVVKRKLGAHDNLKLTITQEGNKFTVKESSNFRNIDVVFELGVDGAYSAADGTELTGTWTMEGNKLVGKFKRVDNGKELIAVREISGNELIQTYTYEGVEAKRIFKKE
modifications: PEPTIDE (1)...(131) wild-type rat intestinal fatty acid binding protein
B2: 68Y, 72A (protein, listed as Rattus norvegicus)
chain: B1 chain with G68Y
modifications: PEPTIDE (1)...(131) wild-type rat intestinal fatty acid binding protein
B3: 68I, 72A (protein, listed as Rattus norvegicus)
chain: B1 chain with G68I
modifications: PEPTIDE (1)...(131) wild-type rat intestinal fatty acid binding protein
B4: 72K (protein, listed as Rattus norvegicus)
chain: B1 chain with G68F, A72K
modifications: PEPTIDE (1)...(131) wild-type rat intestinal fatty acid binding protein
B5: 70C, 72A (protein, listed as Rattus norvegicus)
chain: B1 chain with G68F, Y70C
modifications: PEPTIDE (1)...(131) wild-type rat intestinal fatty acid binding protein
B6: 68L, 72A (protein, listed as Rattus norvegicus)
chain: B1 chain with G68L
modifications: PEPTIDE (1)...(131) wild-type rat intestinal fatty acid binding protein
B7: 72C (protein, listed as Rattus norvegicus)
chain: B1 chain with G68F, A72C
modifications: PEPTIDE (1)...(131) wild-type rat intestinal fatty acid binding protein
B8: 104D1, 72A (protein, listed as Rattus norvegicus)
chain: B1 chain with G68F, A104D
modifications: PEPTIDE (1)...(131) wild-type rat intestinal fatty acid binding protein
B9: 68Q, 72A (protein, listed as Rattus norvegicus)
chain: B1 chain with G68Q
modifications: PEPTIDE (1)...(131) wild-type rat intestinal fatty acid binding protein
B10: 72M (protein, listed as Rattus norvegicus)
chain: B1 chain with G68F, A72M
modifications: PEPTIDE (1)...(131) wild-type rat intestinal fatty acid binding protein
B11: 72Q (protein, listed as Rattus norvegicus)
chain: B1 chain with G68F, A72Q
modifications: PEPTIDE (1)...(131) wild-type rat intestinal fatty acid binding protein
B12: 68M, 72A (protein, listed as Rattus norvegicus)
chain: B1 chain with G68M
modifications: PEPTIDE (1)...(131) wild-type rat intestinal fatty acid binding protein
B13: 72R (protein, listed as Rattus norvegicus)
chain: B1 chain with G68F, A72R
modifications: PEPTIDE (1)...(131) wild-type rat intestinal fatty acid binding protein
B14: 72D (protein, listed as Rattus norvegicus)
chain: B1 chain with G68F, A72D
modifications: PEPTIDE (1)...(131) wild-type rat intestinal fatty acid binding protein
B15: 72G (protein, listed as Rattus norvegicus)
chain: B1 chain with G68F, A72G
modifications: PEPTIDE (1)...(131) wild-type rat intestinal fatty acid binding protein
B16: 72N (protein, listed as Rattus norvegicus)
chain: B1 chain with G68F, A72N
modifications: PEPTIDE (1)...(131) wild-type rat intestinal fatty acid binding protein
B17: 104F1, 72A (protein, listed as Rattus norvegicus)
chain: B1 chain with G68F, A104F
modifications: PEPTIDE (1)...(131) wild-type rat intestinal fatty acid binding protein
B18: 68T, 72A (protein, listed as Rattus norvegicus)
chain: B1 chain with G68T
modifications: PEPTIDE (1)...(131) wild-type rat intestinal fatty acid binding protein
B19: 70M, 72A (protein, listed as Rattus norvegicus)
chain: B1 chain with G68F, Y70M
modifications: PEPTIDE (1)...(131) wild-type rat intestinal fatty acid binding protein
B20: 68N, 72A (protein, listed as Rattus norvegicus)
chain: B1 chain with G68N
modifications: PEPTIDE (1)...(131) wild-type rat intestinal fatty acid binding protein
B21: 68S, 72A (protein, listed as Rattus norvegicus)
chain: B1 chain with G68S
modifications: PEPTIDE (1)...(131) wild-type rat intestinal fatty acid binding protein
B22: 68V, 72A (protein, listed as Rattus norvegicus)
chain: B1 chain with G68V
modifications: PEPTIDE (1)...(131) wild-type rat intestinal fatty acid binding protein
B23: 72E (protein, listed as Rattus norvegicus)
chain: B1 chain with G68F, A72E
modifications: PEPTIDE (1)...(131) wild-type rat intestinal fatty acid binding protein

Assay: Probe fluorescence ratio response to palmitic acid relative to ADIFAB2
Assay type: binding
Conditions: response relative to ADIFAB2
Outline: (§1)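 Each fatty acid's response was expressed relative to ADIFAB2, the rI-FABP-L72A probe, as ΔR/ΔRreference. ΔR is the change in the background-corrected two-wavelength intensity ratio R=Fλ1/Fλ2 from its analyte-free baseline R0. Emission was read near about 420-480 nm for unbound and about 495-580 nm for FFA-bound probe.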

Going from B1 to B2, the “DR/DR PA” value rises from 0.12 to 0.35.

First: B3
Second: B4
The “DR/DR PA” value of the first is higher: 0.35 for the first, 0.13 for the second.

First: B5
Second: B7
The “DR/DR PA” value of the first is higher: 0.14 for the first, 0.12 for the second.

First: B8
Second: B9
The “DR/DR PA” value of the first is higher: 0.34 for the first, 0.28 for the second.

Going from B10 to B12, the “DR/DR PA” value falls from 1.32 to 0.33.

Compared with B13, B14 is lower in “DR/DR PA” value: 0.26 for the first, 0.24 for the second.

Compared with B17, B18 is lower in “DR/DR PA” value: 0.27 for the first, 0.10 for the second.

Going from B19 to B20, the “DR/DR PA” value rises from 0.26 to 0.35.

First: B21
Second: B22
The “DR/DR PA” value of the first is lower: 0.10 for the first, 0.19 for the second.

For B23, the “DR/DR PA” value was 0.19.

For B6, the “DR/DR PA” value was 0.52 and 0.524.
With B11 the “DR/DR PA” value was 0.99 and 0.989.
In the case of B15, the “DR/DR PA” value is reported as 0.26 and 0.307.
In the case of B16, the “DR/DR PA” value is reported as 0.44 and 0.441.

Assay: Probe fluorescence ratio response to linoleic acid relative to ADIFAB2
Assay type: binding
Conditions: response relative to ADIFAB2
Outline: as §1

Compared with B1, B2 is higher in “DR/DR LA” value: 0.17 for the first, 0.36 for the second.

Going from B3 to B4, the “DR/DR LA” value falls from 0.37 to 0.26.

Going from B5 to B6, the “DR/DR LA” value rises from 0.27 to 0.53.

First: B7
Second: B8
The “DR/DR LA” value of the first is lower: 0.25 for the first, 0.71 for the second.

Compared with B9, B10 is higher in “DR/DR LA” value: 0.43 for the first, 1.46 for the second.

Compared with B12, B13 is higher in “DR/DR LA” value: 0.34 for the first, 0.51 for the second.

Going from B14 to B16, the “DR/DR LA” value rises from 0.37 to 0.77.

Compared with B17, B18 is lower in “DR/DR LA” value: 0.47 for the first, 0.11 for the second.

First: B19
Second: B20
The “DR/DR LA” value of the first is lower: 0.39 for the first, 0.67 for the second.

Compared with B21, B22 is higher in “DR/DR LA” value: 0.14 for the first, 0.23 for the second.

With B23 the “DR/DR LA” value was 0.38.

In the case of B11, the “DR/DR LA” value is reported as 0.76 and 0.762.
In the case of B15, the “DR/DR LA” value is reported as 0.48 and 0.544.

Assay: Probe fluorescence ratio response to arachidonic acid relative to ADIFAB2
Assay type: binding
Conditions: Arachidonic acid; response relative to ADIFAB2
Outline: as §1

First: B1
Second: B2
The “DR/DR AA” value of the first is lower: 0.24 for the first, 0.42 for the second.

Compared with B3, B4 is lower in “DR/DR AA” value: 0.42 for the first, 0.26 for the second.

Compared with B5, B6 is higher in “DR/DR AA” value: 0.23 for the first, 0.66 for the second.

Compared with B7, B9 is higher in “DR/DR AA” value: 0.14 for the first, 0.47 for the second.

First: B10
Second: B11
The “DR/DR AA” value of the first is higher: 1.31 for the first, 0.77 for the second.

Going from B12 to B13, the “DR/DR AA” value falls from 0.52 to 0.45.

Compared with B14, B15 is higher in “DR/DR AA” value: 0.27 for the first, 0.62 for the second.

Compared with B16, B18 is lower in “DR/DR AA” value: 0.65 for the first, 0.18 for the second.

Compared with B19, B20 is higher in “DR/DR AA” value: 0.34 for the first, 0.67 for the second.

First: B21
Second: B22
The “DR/DR AA” value of the first is lower: 0.20 for the first, 0.29 for the second.

For B23, the “DR/DR AA” value was 0.27.

Same assay, conditions: arachidonic acid; response relative to ADIFAB2

Going from B6 to B8, the “DR/DR AA” value falls from 0.658 to 0.48.

Going from B11 to B15, the “DR/DR AA” value rises from 0.770 to 0.871.

First: B16
Second: B17
The “DR/DR AA” value of the first is lower: 0.652 for the first, 0.66 for the second.

Assay: Probe fluorescence ratio response to oleic acid relative to ADIFAB2
Assay type: binding
Conditions: response relative to ADIFAB2
Outline: as §1

Going from B1 to B2, the “DR/DR OA” value rises from 0.21 to 0.46.

First: B3
Second: B4
The “DR/DR OA” value of the first is higher: 0.39 for the first, 0.19 for the second.

Compared with B5, B7 is lower in “DR/DR OA” value: 0.24 for the first, 0.20 for the second.

First: B8
Second: B9
The “DR/DR OA” value of the first is higher: 0.64 for the first, 0.45 for the second.

Compared with B10, B12 is lower in “DR/DR OA” value: 1.49 for the first, 0.35 for the second.

First: B13
Second: B14
The “DR/DR OA” value of the first is higher: 0.45 for the first, 0.28 for the second.

Going from B17 to B18, the “DR/DR OA” value falls from 0.45 to 0.13.

Compared with B19, B20 is higher in “DR/DR OA” value: 0.42 for the first, 0.63 for the second.

Going from B21 to B22, the “DR/DR OA” value rises from 0.14 to 0.25.

With B23 the “DR/DR OA” value was 0.34.

In the case of B6, the “DR/DR OA” value is reported as 0.55 and 0.547.
In the case of B11, the “DR/DR OA” value is reported as 0.78 and 0.777.
In the case of B15, the “DR/DR OA” value is reported as 0.52 and 0.628.
With B16 the “DR/DR OA” value was 0.83 and 0.831.

Assay: Probe fluorescence ratio response to linolenic acid relative to ADIFAB2
Assay type: binding
Conditions: response relative to ADIFAB2
Outline: as §1

Compared with B1, B2 is higher in “DR/DR LNA” value: 0.18 for the first, 0.41 for the second.

Compared with B3, B4 is lower in “DR/DR LNA” value: 0.36 for the first, 0.31 for the second.

Compared with B5, B6 is higher in “DR/DR LNA” value: 0.24 for the first, 0.52 for the second.

Going from B7 to B8, the “DR/DR LNA” value rises from 0.17 to 0.67.

First: B9
Second: B10
The “DR/DR LNA” value of the first is lower: 0.38 for the first, 1.35 for the second.

Going from B12 to B13, the “DR/DR LNA” value rises from 0.35 to 0.49.

Compared with B14, B17 is higher in “DR/DR LNA” value: 0.41 for the first, 0.42 for the second.

Compared with B18, B19 is higher in “DR/DR LNA” value: 0.12 for the first, 0.53 for the second.

Compared with B20, B21 is lower in “DR/DR LNA” value: 0.60 for the first, 0.14 for the second.

Compared with B22, B23 is higher in “DR/DR LNA” value: 0.22 for the first, 0.36 for the second.

In the case of B11, the “DR/DR LNA” value is reported as 0.73 and 0.735.
For B15, the “DR/DR LNA” value was 0.48 and 0.590.
In the case of B16, the “DR/DR LNA” value is reported as 0.70 and 0.702.
